Data on one molecule can be found in paper PMC9802656 (2022).

Assay [1] has as its target SARS-CoV-2 S protein (entire S ectodomain) as used with m31A7 (SARS-CoV-2, UniProt P0DTC2 14-1213). Put plainly: ELISA.
In assay [2] the target is SARS-CoV-2 S protein S1 (SARS-CoV-2). Put plainly: ELISA. A general note: ELISA stands for enzyme-linked immunosorbent assay.
Assay [3] addresses SARS-CoV-2 WT S protein expressed on HEK293T cells (SARS-CoV-2, UniProt P0DTC2). Put plainly: FACS. (In flow cytometry, cells or beads pass a laser one at a time.)

B1: monoclonal antibody m31A7 (IgG) (antibody, V domains shown)
VH: EVQLQQSGPEMVKPGASVKISCKTSGYTFTEYTIYWVKQSHGKSLEWLGGINPNIGDTTYNQKFKGKATLTVDTSSSTAYMELRSLTSEDSAVYYCAREVYNYSFAYWGQGTLVTVSA
VL: DIVMSQSPSSLAVSVGEKVTMSCKSSQSLLYSSNQKNYLAWYQQKLGQTPKLLIYWASSRESGVPDRFTGSGSGTDFTLTISSVRAEDLAVYYCQQYYRYPLTFGVGTKLELK
For orientation: EC50 means the midpoint of the concentration-response curve. A lower EC50 goes with an effect from little substance. As to B1, the EC50 in assay [1] came to 0.0312 nM; in assay [2], 0.0235 nM; in assay [3] it was 0.0685 nM.
